Experimental findings from patent US20030215854, “Detection of DNA-binding proteins” (published 2003) are described below.

The target of series [1] is T1, NF-kB p50 (UniProt P19838 P19838:1-433). Kind of series: bead capture with anti-p50 antibody, Luminex; dose dependent; 10 mM Tris pH 7.5, 50 mM NaCl, 2 mM KCl, 2 mM MgCl2, poly dI-dC, room temperature. Particulars: tags: Promega E3770; chain copies: 2; duplex with single-stranded 3' tag. The procedure:
P04 Kbfor and KBrev were annealed by first diluting 100 uM oligonucleotide stocks into annealing buffer (40 mM Tris pH 7.5, 100 mM NaCl, and 1 mM EDTA), to give a ratio of 20 nM P04 Kbfor: 1 uM KBrev. 100 ul of the oligonucleotide mix was then heated to 95° C. for 1 minute, and cooled linearly to room temperature over a period of 45 minutes. 1 ul of the annealed mixture containing detection duplexes displaying a single stranded tag sequence was added to 19 ul of transcription factor binding buffer (10 mM tris pH 7.5, 50 mM NaCl, 2 mM KCl, 2 mM MgCl2) containing 250 ng poly dI-dC, and 0.5% bovine serum albumin (fraction V) and incubated with varying amounts of NF-kB P50 protein for 15 minutes at room temperature. 1800 beads suspended in 25 ul of transcription factor binding buffer containing 0.35% BSA was added to appropriate reactions and incubated 30 minutes at room temperature. Following the hybridization of DNA binding protein-detection duplex complexes to bead surfaces, 25 ul of transcription factor binding buffer containing (0.1 ug) of NF-kB P50 specific primary antibody (Santa Cruz Biotechnolgy Cat #SC-114) was added to the detection duplex-sample-bead mix and incubated for 20 minutes at room temperature in the dark while shaking. […] 25 ul of each assay were read using the Luminex 100 instrumentation.

In series [2] the target is T1, NF-kB p50. Kind of series: protection from lambda exonuclease, signal approx 3600 fluorescent units with p50; poly dI-dC. The following applies: tags: Promega E3770; chain copies: 2; label: 3' biotin on KBrev; duplex with single-stranded 3' tag.

T1 sequence (P19838 1-433, one chain of several): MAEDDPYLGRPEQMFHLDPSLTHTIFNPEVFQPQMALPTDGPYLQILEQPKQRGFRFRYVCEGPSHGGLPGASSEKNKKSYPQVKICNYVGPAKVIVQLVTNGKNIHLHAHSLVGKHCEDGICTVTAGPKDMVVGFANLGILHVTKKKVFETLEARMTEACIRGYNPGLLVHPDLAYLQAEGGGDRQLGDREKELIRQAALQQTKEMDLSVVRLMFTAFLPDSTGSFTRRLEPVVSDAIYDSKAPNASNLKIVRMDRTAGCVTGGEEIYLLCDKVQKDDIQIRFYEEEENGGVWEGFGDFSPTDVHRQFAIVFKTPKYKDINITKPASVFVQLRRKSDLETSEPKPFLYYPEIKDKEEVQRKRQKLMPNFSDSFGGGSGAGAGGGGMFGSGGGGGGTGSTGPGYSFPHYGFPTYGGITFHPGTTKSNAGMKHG

B1: PO4 Kbfor/KBrev (dsDNA)
DNA 1: AGTTGAGGGGATCCCCAGGAGCGGCTTATCGGTCTATTCAACTCCCCTAGGGG
DNA 2: TCCTGGGGATCCCCTCAACT
modifications: 5' phosphate on Kbfor
As to B1, the binding result with NF-kB p50 [1] is recorded as “binds”.

B2: PO4 Kbfor/biotinKBrev (dsDNA)
DNA 1: B1 DNA 1
DNA 2: TCCTGGGGATCCCCTCAACT
modifications: 5' phosphate on Kbfor
Consider B2, for which, in the series with NF-kB p50 [2], the binding result was “binds”.
